Assay results from US20150203577A1 (Chugai, published 2015).
Substitutions are numbered along the chain they refer to.

T1: mouse FcγRIII extracellular domain with C-terminal His tag (mouse, UniProt P08508 31-215)
T1 construct: Made on the basis of NCBI NP-034318.2; also called mFcγRIII; mFcgRIII
T1 chain: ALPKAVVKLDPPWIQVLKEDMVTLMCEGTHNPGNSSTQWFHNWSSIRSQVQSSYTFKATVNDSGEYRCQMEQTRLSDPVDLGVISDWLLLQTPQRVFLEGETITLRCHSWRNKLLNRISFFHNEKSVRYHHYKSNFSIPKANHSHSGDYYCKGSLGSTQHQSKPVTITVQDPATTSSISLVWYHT

T2: mouse FcγRII extracellular domain with C-terminal His tag (mouse, UniProt P08101 30-210)
T2 construct: Made on the basis of NCBI NP-034317.1; also called mFcγRII; mFcgRII
T2 sequence: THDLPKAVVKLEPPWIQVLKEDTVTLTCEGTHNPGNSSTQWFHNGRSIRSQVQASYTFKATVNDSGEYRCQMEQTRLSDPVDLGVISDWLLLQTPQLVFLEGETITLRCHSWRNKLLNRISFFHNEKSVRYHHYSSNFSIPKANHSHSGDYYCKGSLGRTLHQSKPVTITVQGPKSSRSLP

B1: H237-MB402/MRAL-k0 (antibody, mouse IgG1, kappa)
heavy: QVQLQESGPGLVKPSETLSLTCAVSGHSISHDHAWSWVRQPPGEGLEWIGFISYSGITNYNPSLQGRVTISRDNSKNTLYLQMNSLRAEDTAVYYCARSLARTTAMDYWGEGTLVTVSSAKTTPPSVYPLAPGSAAQTNSMVTLGCLVKGYFPEPVTVTWNSGSLSSGVHTFPAVLQSDLYTLSSSVTVPSSTWPSETVTCNVAHPASSTKVDKKIVPRDCGCKPCICEWYEVEDVFIFPPKPKDVLTITLTPKVTCVVVDISKDDPEVQFSWFVDDVEVHTAQTQPREEQFNSTFRSVSELPIMHQDWLNGKEFKCRVNSAAFPAPIEKTISKTKGRPKAPQVYTIPPPKEQMAKDKVSLTCMITDFFPEDITVEWQWNGQPAENYKNTQPIMDTDGSYFVYSKLNVQKSNWEAGNTFTCSVLHEGLHNHHTEKSLSHSPGK
light: not shown
notes: copies: 2 + 2
B2: H237-MB404/MRAL-k0 (antibody, mouse IgG1, kappa)
heavy: B1 heavy with E229D, W230A
light: not shown
notes: also called M8404; copies: 2 + 2
B3: H237-MB412/MRAL-k0 (antibody, mouse IgG1, kappa)
heavy: B1 heavy with E229Q, W230V
light: not shown
notes: copies: 2 + 2
B4: H237-MB413/MRAL-k0 (antibody, mouse IgG1, kappa)
heavy: B1 heavy with E229T, W230V
light: not shown
notes: copies: 2 + 2
B5: H237-MB416/MRAL-k0 (antibody, mouse IgG1, kappa)
heavy: B1 heavy with E229P, W230D
light: not shown
notes: copies: 2 + 2
B6: H237-MB417/MRAL-k0 (antibody, mouse IgG1, kappa)
heavy: B1 heavy with E229Q, W230D
light: not shown
notes: copies: 2 + 2
B7: H237-MB411/MRAL-k0 (antibody, mouse IgG1, kappa)
heavy: B1 heavy with E229P, W230V
light: not shown
notes: copies: 2 + 2
B8: H237-MB405/MRAL-k0 (antibody, mouse IgG1, kappa)
heavy: B1 heavy with E229I, W230A
light: not shown
notes: copies: 2 + 2
B9: H237-MB406/MRAL-k0 (antibody, mouse IgG1, kappa)
heavy: B1 heavy with E229P, W230A
light: not shown
notes: copies: 2 + 2
B10: H237-MB418/MRAL-k0 (antibody, mouse IgG1, kappa)
heavy: B1 heavy with E229T, W230D
light: not shown
notes: copies: 2 + 2
B11: H237-MB422/MRAL-k0 (antibody, mouse IgG1, kappa)
heavy: B1 heavy with E229Q, W230N
light: not shown
notes: copies: 2 + 2
B12: H237-MB423/MRAL-k0 (antibody, mouse IgG1, kappa)
heavy: B1 heavy with E229T, W230N
light: not shown
notes: copies: 2 + 2
B13: H237-MB408/MRAL-k0 (antibody, mouse IgG1, kappa)
heavy: B1 heavy with E229T, W230A
light: not shown
notes: copies: 2 + 2
B14: H237-MB424/MRAL-k0 (antibody, mouse IgG1, kappa)
heavy: B1 heavy with E229D, W230P, Y231A
light: not shown
notes: copies: 2 + 2
B15: H237-MB419/MRAL-k0 (antibody, mouse IgG1, kappa)
heavy: B1 heavy with E229D, W230N
light: not shown
notes: copies: 2 + 2
B16: H237-MB409/MRAL-k0 (antibody, mouse IgG1, kappa)
heavy: B1 heavy with E229D, W230V
light: not shown
notes: copies: 2 + 2
B17: H237-MB420/MRAL-k0 (antibody, mouse IgG1, kappa)
heavy: B1 heavy with E229I, W230N
light: not shown
notes: copies: 2 + 2
B18: H237-MB421/MRAL-k0 (antibody, mouse IgG1, kappa)
heavy: B1 heavy with E229P, W230N
light: not shown
notes: copies: 2 + 2
B19: H237-MB415/MRAL-k0 (antibody, mouse IgG1, kappa)
heavy: B1 heavy with E229I, W230D
light: not shown
notes: copies: 2 + 2
B20: H237-MB414/MRAL-k0 (antibody, mouse IgG1, kappa)
heavy: B1 heavy with E229D, W230D
light: not shown
notes: copies: 2 + 2
B21: H237-MB407/MRAL-k0 (antibody, mouse IgG1, kappa)
heavy: B1 heavy with E229Q, W230A
light: not shown
notes: copies: 2 + 2

Target: T1, mouse FcγRIII extracellular domain with …
Experiment: SPR Biacore T200
Protocol: (§1) Each altered antibody was analyzed for its interaction with each Fcγ receptor prepared above using Biacore T100 (GE Healthcare Japan Corp.), Biacore T200 (GE Healthcare Japan Corp.), Biacore A100, or Biacore 4000. The running buffer used was HBS-EP+ (GE Healthcare Japan Corp.). The assay temperature was set to 25° C. The sensor chips used were chips prepared by immobilizing Protein L (ACTIGEN or BioVision) onto Series S Sensor Chip CM5 (GE Healthcare Japan Corp.) or Series S Sensor Chip CM4 (GE Healthcare Japan Corp.) by the amine coupling method.
(§2) In order to calculate the KD value of each altered antibody for FcγR, kinetic analysis was conducted according to the following method: first, the antibody of interest was captured onto any of these chips and allowed to interact with mFcγR diluted with a running buffer. For the obtained sensorgram, the assay results were globally fit into the 1:1 Langmuir binding model using Biacore Evaluation Software to calculate an association rate constant ka (L/mol/s) and a dissociation rate constant kd (1/s). From these values, the dissociation constant KD (mol/L) was calculated.

| Binder | Kd [nM] | relative mFcγRIII-binding activity (mIgG1 = 1) |
| --- | --- | --- |
| B1 | 23.6 | 12 |
| B2 | 33 | 8.6 |
| B3 |  | 8.3 |
| B4 |  | 11.9 |
| B5 |  | 6.3 |
| B6 |  | 10.7 |
| B7 |  | 8.1 |
| B8 |  | 8 |
| B9 |  | 6.5 |
| B10 | 14.1 | 20 |
| B11 |  | 8.9 |
| B12 |  | 9.2 |
| B13 |  | 13.1 |
| B14 |  | 5.1 |
| B15 | 24.3 | 11.6 |
| B16 |  | 10.7 |
| B17 |  | 7.1 |
| B18 |  | 9 |
| B19 |  | 9.1 |
| B20 |  | 8.1 |
| B21 |  | 9.8 |

target: T2, mouse FcγRII extracellular domain with …; experiment: SPR Biacore T200
Protocol: as §1, §2

| Binder | Kd [nM] | relative mFcγRII-binding activity (mIgG1 = 1) |
| --- | --- | --- |
| B1 | 1.01 | 208 |
| B2 | 0.891 | 236 |
| B3 |  | 113 |
| B4 |  | 108 |
| B5 |  | 189 |
| B6 |  | 190 |
| B7 |  | 132 |
| B8 |  | 146 |
| B9 |  | 191 |
| B10 | 0.802 | 262 |
| B11 |  | 144 |
| B12 |  | 143 |
| B13 |  | 163 |
| B14 |  | 104 |
| B15 | 0.974 | 216 |
| B16 |  | 192 |
| B17 |  | 124 |
| B18 |  | 178 |
| B19 |  | 159 |
| B20 |  | 189 |
| B21 |  | 164 |

target: T2, mouse FcγRII extracellular domain with …; experiment: SPR Biacore T200; KD mFcγRIII / KD mFcγRII
Protocol: as §1, §2

| Binder | I/A (mFcγRII selectivity) | relative I/A (mFcγRII selectivity) (mIgG1 = 1) |
| --- | --- | --- |
| B1 | 23.3 | 17.4 |
| B2 | 37 | 27.6 |
| B3 |  | 13.7 |
| B4 |  | 9.1 |
| B5 |  | 30.2 |
| B6 |  | 17.8 |
| B7 |  | 16.4 |
| B8 |  | 18.2 |
| B9 |  | 29.6 |
| B10 | 17.6 | 13.1 |
| B11 |  | 16.3 |
| B12 |  | 15.5 |
| B13 |  | 12.5 |
| B14 |  | 20.4 |
| B15 | 25 | 18.6 |
| B16 |  | 18 |
| B17 |  | 17.5 |
| B18 |  | 19.9 |
| B19 |  | 17.5 |
| B20 |  | 23.6 |
| B21 |  | 16.9 |
